Measured values published in patent US20220341931A1.

Target: Influenza A [A/Hawaii/70/2019 (H1N1)pdm09-like virus] Hemagglutinin (HA), His-Tag (Native Antigen Co (Influenza A [A/Hawaii/70/2019 (H1N1)pdm09-like virus]))

## SARS-CoV-2 (2019-nCoV) Nucleocapsid Antibody, Rabbit MAb (Sino Biological Cat: 40143-R019)
  barcode sequence counts (FLU A): 2000 counts
